The source of these data is the DeepSol protein solubility set.

The data set can be described thus: soluble on expression in E. coli; label from the status in PepcDB or PDB records.
For “SPRPRKRQTGTAGPDRKKLSGKRTKTENSESTSVKLENSSLEMTTTFKNGGKNLSNYWLMKSEPESRLEKGIDMKFSIEDLKAQPKQTACWDGVRNYQARNFLRAMKLEDEAFFYHSNCKQPGIVGLMKIVKEAYPDHTQFEKSNPHYDPSSKEDDPKWSMVDVQFVRMMKRFIPLEELKTYHQAHKATGGPLKSMTLFTRQRLSVQPLTQEEFDFILSLEETEPS”, the “soluble on expression in E. coli” value is given as “soluble”. To “SPSAEERQKEERTAGLNETVPQATDGELPDDKLKGYELGRDEEKESHRQETLGNLYDYFEKKDETREQEISEEAASDGLHPIERSVSRYEETSQMVHSFYEPPAYDYEKEALREELDMIRSELATLKEEKEEEIDHLELLEKSYRMAAKYFPASGDANSRDAYTRSQERPADAPAPKTAVTAERAALPAVELLPEKKAIVSSLDQPMSDSAFIAEYGHKERNFGFRSADVPASSVTRNTLRVVVDRTTTLQHGDFVQLRLLESARLHDLSIPRHTRLMAQARIDGNRMKLHITSIEYGGRIVSVQLSAFDTDGQEGVFIPGSEEVSALKE” belongs “not soluble”; to “SQIPASEQETLVRPKPLLLKLLKSVGAQKDTYTMKEVLFYLGQYIMTKRLYDEKQQHIVYCSNDLLGDLFGVPSFSVKEHRKIYTMIYRNLVVVNQQESSDSGTSVSENHHHHHH”, “soluble”. Turning to “SQPKLALKQLAKQGDECLKKGAWVLIFPEGTRIPVGQMGKFSRGGTALAVNAGLPVLPIAHNAGQYWPKAGWAKYPGTIQVVIGPAMHAEGEGPRAIAELNQRAEAWVSETMAEISPIQQRVSHPEPSVVS”, the “soluble on expression in E. coli” value is listed as “not soluble”.

For “SQRGVLEDEQMYQRCCNLFEKFFPSSSYRRPVGISSMVEAMVSRARIDARIDFESGRIKKEEFTEIMKICSTIEELRRQK”, the “soluble on expression in E. coli” value was “soluble”.

On to “SRRRRSGTEPEKIEPGEGASRSRRDMLKDGGQQGLGTGARDPDKATRFRMEELRLTSTTFALTGDSAHNQAMVHWSGHNSSVILILTKLYDYNLGSITESSLWRSTDYGTTYEKLNDKVGLKTILSYLYVCPTNKRKIMLLTDPEIESSLLISSDEGATYQKYRLNFYIQSLLFHPKQEDWILAYSQDQKLYSSAEFGRRWQLIQESVVPNRFYWSVMGSSKEPDLVHLEARTVDGHSIYLTCRMQNCTEANRNKPFPGYIDPDSLIVQDDYVFVQLTSGGRPHYYVSYRRSPFAQMKLPKYALPKDMHVISTDENQVFAAVQEWNQNDTYNLYISDTRGVYFTLALENVQSSRGPEGNVMIDLYEVAGIKGMFLANKKIDNQVKTFITYNKGRDWRLLQAPDADLRGDPVHCLLPYCSLHLHLKVSENPYTSGIIASRDTAPSIIVASGNIGSELSDSDISMFVSSDAGNTWRQIFEEEHSILYLDQGGVLVAMKHTSLPIRHLWLSFDEGRSWSKYSFTSIPLFVDGVLGEPGEETLIMTVFGHFSHRSEWQLVKVDYKSIFDRRCAEEDYRPWQLHSQGEACIMGAKRIYKKRKSERKCMQGKYAGAMESEPCVCTEADFDCDYGYERHSNGQCLPAFWFNPSSLSKDCSLGQSYLNSTGYRKVVSNNCTDGVREQYTAKPQKCP”, for which the “soluble on expression in E. coli” value is on record as “soluble”. Take “SSGAQGAEPMDSRTATTYESVEGGQNKTKLDIRSKEDEGGIQVDKLQDKVSDAAGLGGPVFGAGKDDKKQDLGVTGTG”: the “soluble on expression in E. coli” value is listed as “soluble”. To “SSGLVPRGPLGSHMDAVDATMEKLRAQCLSRGASGIQGLARFFRQLDRDGSRSLDADEFRQGLAKLGLVLDQAEAEGVCRKWDRNGSGTLDLEEFLRALRPPMSQAREAVIAAAFAKLDRSGDGVVTVDDLRGVYSGRAHPKVRSGEWTEDEVLRRFLDNFDSSEKDGQVTLAEFQDYYSGVSASMNTDEEFVAMMTSAWQLKL” belongs “soluble”; to “SSKEAFDELSVLSAIYCEQGEFEVLEESPEKGVVFRVHTLIDNNEKTPLDIIFHISPEYPNTPPDISISSNHLSRRQCHDLRRSLLDTAQSLPAEPMVHGLMLWLQENFSDLIKTSSCHSAEVRPETTEETWTALLHLDHMRSKAKYIKLIEKWTLELRLTGRLFTGKLILILLQGTKENIKQYIHLLKSVKVDVDSSGKRCKEKMMSVLCEIPKPEDKIMMTTFEVKDILSLDDLRREFDLIGLNELYHQFVSSLT”, “soluble”. Consider SSRIGEIKEETTSHLRSCEYKGRPPKAGAEPASEREVS, for which the “soluble on expression in E. coli” value is given as “soluble”.

Consider “SSSTSHSSLKSPSHMEKYPQKEKTKEDLDSRSNLHLPETKFSELSKLKNDDMEKANHIESVIKSNLPNCANSDTDFMGLFKSSRYDPSISFSGMSLSDTMTLRGSVQNKLNPRPGKVVIYSEPDVSEKCIEVFSDIQDCSSWSLSPVILIKVVRGCWILYEQPNFEGHSIPLEEGELELSGLWGIEDILERHEEAESDKPVVIGSIRHVVQDYRVSHIDLFTEPEGLGILSSYFDDTEEMQGFGVMQKTCSMKVHWGTWLIYEEPGFQGVPFILEPGEYPDLSFWDTEAAYIGSMRPLKMGGRKVEFPTDPKVVVYEKPFFEGKCVELETGMCSFVMEGGETEEATGDDHLPFTSVGSMKVLRGIWVAYEKPGFTGHQYLLEEGEYRDWKAWGGYNGELQSLRPILGDFSNAHMIMYSEKNFGSKGSSIDVLGIVANLKETGYGVKTQSINVLSGVWVAYENPDFTGEQYILDKGFYTSFEDWGGKNYKISSVQPICLDSFTGPRRRNQIHLFSEPQFQGHSQSFEETTSQIDDSFSTKSCRVSGGSWVVYDGENFTGNQYVLEEGHYPCLSAMGCPPGATFKSLRFIDVEFSEPTIILFEREDFKGKKIELNAETVNLRSLGFNTQIRSVQVIGGIWVTYEYGSYRGRQFLLSPAEVPNWYEFSGCRQIGSLRPFVQKRIYFRLRNKATGLFMSTNGNLEDLKLLRIQVMEDVGADDQIWIYQEGCIKCRIAEDCCLTIVGSLVTSGSKLGLALDQNADSQFWSLKSDGRIYSKLKPNLVLDIKGGTQYDQNHIILNTVSKEKFTQVWEAMVLYT”, for which the “soluble on expression in E. coli” value is given as “soluble”.

“SSTIGSFEGFQAVSLKQEGDDQPSETDHLSMEEEDPMPRQISRQSSVTESTLYPNPYHQPYISRKYFATRPGAIETAMEDLKGHVAETSGETIQGFWLLTKIDHWNNEKERILLVTDKTLLICKYDFIMLSCVQLQRIPLSAVYRICLGKFTFPGMSLDKRQGEGLRIYWGSPEEQSLLSRWNPWSTEVPYATFTEHPMKYTSEKFLEICKLSGFMSKLVPAIQNAHKNSTGSGRGKKLMVLTEPILIETYTGLMSFIGNRNKLGYSLARGSIGF”: the “soluble on expression in E. coli” value was “soluble”. The result for “SSTKVPIYLKRGSRKGKKEKLRDLLSSDMISPPLGDFRHTIHIGSGGGDDMFGDISFLQGKFHLLPGTAVEEAEEDGSFDLPFQFTRTTTVCGRELPDGLSPLLKNAISLPVIGGPQALTLPTAQAPPKPPRLHLESPQPSPQPSPQGAGNVDVWRIPEAGSPHNGMSPEPEAEEPFLSHASSLLSLHVDLGPSILDDVLQIMDHDLGRVQIPT” reads “soluble”. In the case of “SSTTTGPEAAPKPSAKSIYEQRKRYSTVVMADVSQYHVNHLVTFCLGEEDGVHTVEDASRKLAVMDSQGRVWAQEMLLRVSPSQVTLLDPVSKEELESYPLDAIVRCDAVMPRGRSRSLLLLVCQEPERAQPDVHFFQGLLLGAELIREDIQGALQNYRSGRGERRAAALRATQEELRRGASPAAETPPLQRRPSVRLVINTVEPSAVRGRPQVESIPETEEARKPDQARTTSSADPTSPDLGPRGPELAGLQAERDVDILNHVFDDVESFVSRLQKSAEATRVLEHRERGRRTRRRAAGEGLLTLRAKPPTEAEYTDVLQKIKYAFSLLARLRGNIANPSSPELLHFLFGPLQMIVNTSGGPEFAKSVRRPHLTLEAVTLLRDNVTPGENELWTSLGDSWTCPGVELPPEEGSPYSPEFYNGWEPPATDPQGRPWEDPVEKQLQHEKRRRQQSAPQVAVNGKIQNWKLSPS”, the “soluble on expression in E. coli” value is “soluble”. The result for “SSYADFVWFLISEEDKRNPTSIEYWFRCMDVDGDGILSMYELEYFYEEQCERMEAMGIEPLPFHDLLCQMLDLVKPASDGRITLRDLKRCRMAHIFYDTFFNLEKYLDHEQRDPFAVQKDVENDGPEPSDWDRFAAEEYEALVTEESAQVQLQEGSFEDYESDEPVSPSELGNKGNKIVTSSLSEKCGKLQSVDEE” reads “soluble”; that for “SSYNILSQDLLEDNSHLYRHCRRPVLHWSFRFPNILKEIKHFDADVLCLQEVQEDHYGAEIRPSLESLGYHCEYKMRTGRKPDGCAICFKHSKFSLLSVNPVEFFRPDISLLDRDNVGLVLLLQPKIPYAACPAICVANTHLLYNPRRGDIKLTQLAMLLAEISSVAHQKDGSFCPIVMCGDFNSVPGSPLYSFIKEGKLNYEGLPIGKVSGQEQSSRGQRILSIPIWPPNLGISQNCVYEVQQVPKVEKTDSDLTQTQLKQTEVLVTAEKLSSNLQHHFSLSSVY”, “soluble”. To “STDISTVASPLFEGTEGCFLLYDASTNAEIAQFNKAKCATQMAPDSTFKIALSLMAFDAEIIDQKTIFKWDKTPKGMEIWNSNHTPKTWMQFSVVWVSQEITQKIGLNKIKNYLKDFDYGNQDFSGDKERNNGLTEAWLESSLKISPEEQIQFLRKIINHNLPVKNSAIENTIENMYLQDLDNSTKLYGKTGAGFTANRTLQNGWFEGFIISKSGHKYVFVSALTGNLGSNLTSSIKAKKNAITILNTLNL” belongs “soluble”; to “STTEIGWWKLTFLRKKKSTPKVLYEIPDTYAQTEGDAEPPRPDAGGPNSDFNTRLEKIVDKSTKGKHVKVSNSGRFKEKKKVRATLAENPNLFDDHEEGRSSK”, “soluble”. The result for “STYPPTPPNVTRLSDESVMLRWMVPRNDGLPIVIFKVQYRMVGKRKNWQTTNDNIPYGKPKWNSELGKSFTASVTDLKPQHTYRFRILAVYSNNDNKESNTSAKFYLQPGAALDPMPVPELLEIEEYSETAVVLHWSLASDADEHLITGYYAYYRPSSSAGEYFKATIEGAHARSFKIAPLETATMYEFKLQSFSAASASEFSALKQGRTQRPK” reads “soluble”; that for “SVEDELALFDKSINEFWNKFKSTDTSCQMAGLRDTYKDSIKAFAEKLSVKLKEEERMVEMFLEYQNQISRQNKLIQEKKDNLLKLIAEVKGKKQELEVLTANIQDLKEEYSRKKETISTANKANAERLKRLQKSADLYKDRLGLEIRKIYGEKLQFIFTNIDPKNPESPFMFSLHLNEARDYEVSDSAPHLEGLAEFQENVRKTNNFSAFLANVRKAFTATVYN”, “soluble”; that for “SWMANQFFLLEEYTGSDYQYVGKLHSDQDRGDGSLKYILSGDGAGDLFIINENTGDIQATKRLDREEKPVYILRAQAVNRRTGRPVEPESEFIIKIHDINDNEPIFTKDVYTATVPEMADVGTFVVQVTATDADDPTYGNSAKVVYSILQGQPYFSVESETGIIKTALLNMDRENREQYQVVIQAKDMGGQMGGLSGTTTVNITLTD”, “soluble”. In the case of “SYELTQPPSVSVAPGQTARISCSGDNIGGTFVSWYQQKPGQAPVLVIYDDNDRPSGIPERFSGSNSGNTATLTISGTQAEDEADYYCGTWDMVTNNVFGGGTKLTVLGQPKAAPSVTLFPPSSEELQANKATLVCLISDFYPGAVTVAWKADSSPVKAGVETTTPSKQSNNKYAASSYLSLTPEQWKSHRSYSCQVTHEGSTVEKTVAPTECS”, the “soluble on expression in E. coli” value is listed as “soluble”. To “SYLYTLYSDVRTEVAKMERVAWLEVVGKFETEKLTPNSLYEVVFVVKLIDSAKGWDFRVNFKLVLPTGETKERRENVNLLERNKWVEIPAGEFMISPEHLSGKIEFSMLEVKSDQWKSGLIVKGVAIRPKN” belongs “soluble”. To “SYSKTNEAAIEKTRHIANAAVYGRPEYRYNGALNLHYRPKRTDSTLLLNGGMNLNGEVLIEGGNMIVSGRPVPHAYDHQAKREPVLENEWTDGSFKAARFTLRNHARLTAGRNTAHLDGDITAYDLSGIDLGFTQGKTPECYRSYHSGSTHCTPNAVLKAENYRALPATQVRGDITLNDRSELRLGKAHLYGSIRAGKDTAVRMEA” belongs “not soluble”.
